Data: patent US20110124706A1, “SOCS3 Inhibition Promotes CNS Neuron Regeneration” (priority 2009, published 2011)
“Also recorded” adds a separate entry of the source.

Test system: injured optic nerve axons
Test: optic nerve crush injury, axon regeneration assessed by CTB anterograde tracing
Format: in vivo, mice
Settings: intravitreal 1 μl CNTF (1 μg/μl) immediately before and 3 days after injury
Experimental: We applied optic nerve crush injury to assess axon growth ability in adult CNS in different conditional floxed mice (Park et al., 2008 Science 322, 963-966). Intravitreal application of recombinant adeno-associated viruses expressing Cre (AAVCre) results in Cre-dependent reporter expression in more than 90% of RGCs. Regeneration was assessed in the injured optic nerve axons by using cholera toxin beta subunit (CTB), an anterograde tracer, which was injected into the vitreous of the retina following optic nerve injury two days prior to histological analyses. Neuronal survival was assessed using whole-mount staining of the retinal tissue by immunostaining with an anti-β-III tubulin antibody, a commonly used marker of RGCs.
We intravitreously injected 1 μl CNTF (1 μg/μl) immediately before injury and 3 days after injury (PBS injection was used as control).

B1: ciliary neurotrophic factor (protein, UniProt P26441 1-200, looked up)
Ciliary neurotrophic factor: MAFTEHSPLTPHRRDLCSRSIWLARKIRSDLTALTESYVKHQGLNKNINLDSADGMPVASTDQWSELTEAERLQENLQAYRTFHVLLARLLEDQQVHFTPTEGDFHQAIHTLLLQVAAFAYQIEELMILLEYKIPRNEADGMPINVGDGGLFEKKLWGLKVLQELSQWTVRSIHDLRFISSHQTGIPARGSHYIANNKKM
**Q.** B1 was tested. Which “numbers and lengths of regenerating axons” value (SOCS3 deleted mice) did it give?
**A.** The value was “dramatic increase; also recorded: further enhances”.

**Q.** What about the axon regeneration (control mice (SOCS3f/f with AAV-GFP)) of the same molecule?
**A.** The axon regeneration was “limited degree of axon regeneration”.
